Source: US20140287419A1, “Compositions Having Dicamba Decarboxylase Activity and Methods of Use” (priority 2013, published 2014)
Changes are numbered by the printed parent chain.

B1: SEQ ID NO:88: o-pyrocatechuate decarboxylase, Starkeya novella DSM 506 (protein, listed as Starkeya novella)
chain: MARKIALEEHFTTPELAGKYVARPTQSDALFADIERRLADFDELRLEMMDRAEIDLMVLSVTTPGVQGVRDTGEAIRLARGANDFLAREVQKRPSRYAGFAHLAMQDAEAAATELERAVRELGFRGALINGQTNGHYLDEDQYAPFWERVQELDVPVYLHPGNMADSPAMFAHRPELGGPIWAWTAETAAHALRLVFGGTFTRFPGAKVILGHMGETLPFLLWRLDSRREFDLGEKLAPDALPSAIIKRNIAVTTSGVCDPAPLVAALQALSDDNVMFSVDYPYEDPQLASKFIETAPIGEETRAKVCHGNAERLLGL
B2: SEQ ID NO:89: amidohydrolase, Erwinia billingiae Eb661 (protein, listed as Erwinia billingiae)
chain: MATNRRDFLKNATAVMAGSTVFAGSSHFASAAAVEPAAVQPPRRIIALEEHFMLPEFVGYLHETQQNLRNGLVDKVVTPLSDFGKGRLEIMDKNGVDFAVLSLSGPGVQAEPDRVKAVRLARYANDKLATEMQKNPRRYGGFAHLAMQDPLAAANELERCVKQLHMQGGMINGETDGLYLDDRRYDVFWERVEALNVPIYIHPGNPPDYPHMFAGHPEMWGPVWSWAVETCSHALRLIFSGTFDRYPGARVILGHMGETLPIQLWRLDSRYQIANQTFAIKHPPSWYAKKNITITTSGVCNDAALRCALDSMGSENVMFSIDYPFESTEIAVNWLKTANITEQERNAVAWGNATSILRLGA
B3: SEQ ID NO:92: amidohydrolase 2, Chitinophaga pinensis DSM 2588 (protein, listed as Chitinophaga pinensis)
chain: MARIVTLEEHVSFPEMTALLPEEILKNRKQSGAALQMQEKLADITGERLTSMKAAGISMQVLSVENTDVYLLPDSLAPAFAAKYNDLLADKISSHSDAFAAFAMLPMTVPEAAADELERAVKTHGFCGAMIKGLINGVFLDAPKFAPVFACAEKLGVPLYIHPGIPPKEVIDAYYSNVGDTKGPNEAIACYGWGWHSETAIHILRLLAAGIFDKYPQLNIIIGHMGEMLPMMWERSNRVFQPGNNGKNQRTLIETFRKQLYITTSGIFTQPPLQIAIDTIGIDNILFSIDYPFSSNQMGIDFLTKAALPAEQLAKMAHGNADRILKF
B4: SEQ ID NO:4: o-pyrocatechuate decarboxylase, Lactobacillus buchneri NRRL B-30929 (protein, listed as Lactobacillus buchneri)
chain: MAKVITLEEHFSSQKLGQKMAEVLPKRPIGNVSPKMQDYMQRSLPPEAELEDVTGSRIQWMDQHQISMQILSYGNQNPQNSDPKFAVELTKLANDELAKAVAKAPDRFRAFASLPVSHPTDAAAELKRGVEELGFKGAMLVRPTSQAHPFFDDPFYLPIFEAAANLNVPVYLHPSFPDSQIIDYYYSNGPWDDKVSGILGTAGYGWHTDVGIQTVRLLLSGVFEKYPNLKLISGHWGEFASFALERMDQVMYPETNLSEPISKIYRDHVYVTPSGILTEPQLKFVKDEVGIEHLLYSIDYPYIKPENSGSFIESSPLTDEEKELFAHGNAEKLLQL
B5: SEQ ID NO:5: possible o-pyrocatechuate decarboxylase, Staphylococcus aureus subsp. aureus MN8 (protein, listed as Staphylococcus aureus)
chain: MAQNNMEANQMKSITFEEHYVIEDIQKETMNAISADPKGVPMKVMLEGLEKKTGFTNADELSHHDERIQFMNNQDVQIQVLSYGNGSPSNLVGQKAIELCQKANDQLANYIAQYPNRFVGFATLPINEPEAAAREFERCINDLGFKGALIMGRAQDGFLDQDKYDIIFKTAENLGVPIYLHPAPVNSDIYQSYYKGNYPEVTAATFACFGYGWHIDVGIHAIHLVLSGIFDRYPKLNMIIGHWGEFIPFFLERMDEALFAEHLNHPVSYYFKNNFYITPSGMLTKPQFDLVKKEAGIDRILYAADYPYIEPEKLGVFLDELGLTDEEKEKISYTNGAKLLGLSSNN
B6: SEQ ID NO:16: possible o-pyrocatechuate decarboxylase, Staphylococcus aureus subsp. aureus TCH60 (protein, listed as Staphylococcus aureus)
chain: B5 chain with A131T
B7: SEQ ID NO:19: 2,3-dihydroxybenzoic acid decarboxylase, putative, Talaromyces marneffei ATCC 18224 (protein, listed as Talaromyces marneffei)
chain: MATPIITLEEHYISSAIRDASETDHYAVFPSQIISKLNTLSTERLQDLDNGHVSLQVISHGPGAQPPYLCQAANDELASAISANPTRFAGFALLPIAEPQLAVQELERCITQHKFVGALIDNHTNGQFYDDQKFWPVFEKAQELDAPIYVHPSYPDEESGVAAHYRGNYDDRIAAALGAYGWGWHSDTALSILRLFAAGLFDTYPNIKIIIGHMGEMLPFQLERVIGIASRFGRSRGLREVWTQNIWVTTSGMFALAPLACLLQTMPIERVLYSVDYPFSANEKGFAFLEEIKKSGLIKEGEDWERFLYKNAQELLKVNV
B8: SEQ ID NO:21: reversible 2,6-dihydroxybenzoic acid decarboxylase, Agrobacterium tumefaciens (protein, listed as Agrobacterium tumefaciens)
chain: MAQGKVALEEHFAIPETLQDSAGFVPGDYWKELQHRLLDIQDTRLKLMDAHGIETMILSLNAPAVQAIPDRKKAIEIARRANDVLAEECARRPDRFLAFAALPLQDPDAATQELQRCVNDLGFVGALVNGFSQEGDGQTPLYYDLPQYRPFWGEVEKLDVPFYLHPRNPLPQDSRIYDGHPWLLGPTWAFAQETAVHALRLMASGLFDAHPRLNIILGHMGEGLPYMMWRIDHRNAWVKLPPRYPAKRRFVDYFNENFHITTSGNFRTQTLIDAILEIGADRILFSTDWPFENIDHASDWFNATTIAEADRVKIGRTNARRLFKLDGR
B9: SEQ ID NO:22: possible o-pyrocatechuate decarboxylase, Staphylococcus epidermidis M23864: W1 (protein, listed as Staphylococcus epidermidis)
chain: MAKSINFEEHYVVDDIQKETMKYMSSDPNGVPMQTMLKGLEQKSGFTNADDITKHDERIKFMDEHDVEMQVLSYGNGAPSNLEGERAIELCQQANDTLAKYVNEHPDRFVGFATLPINEPQAAVEEFKRCIKELGFKGALIMGHPKNGFLDQDQYDDLFATAEALNVPIYLHPSPVQSDVYQAYYKGNYSDVTAATFACFGYGWHVDVGIHAIHLVLSGVFDRHPNLNMIIGHWGEFVPFFLERMDDILFADHLEHPISYYFKNNFYITPSGMLTKPQFDLVKAEVGVDRILYSADYPYVEPDKLGTFLDELDLTEEEKEKISYKNGAKLLGLEK
B10: SEQ ID NO:26: o-pyrocatechuate decarboxylase, Variovorax paradoxus EPS (protein, listed as Variovorax paradoxus)
chain: MATHMAPMKNKIALEEHFAIDLTIADSQVYARPEVWQGLKSNLLDFEQQRLEKMDEWGTEFSILSLNSPAVQGIPDAKRAIEVAQRANDVLAEQVKRHPTRFGGFAALPMQDPEASARELERCVNQLGFHGFLVNGFSQVGDENIVVYYDDARFNDFWTAAAALKKPFYMHPRDPLLAREPIYDGAHWLTGPTWAFAMETAIHALRLMSSGMFDRHPALQMILGHFGEGIPFNIWRVDHILRKGRRGMPCDKEIGEYLRSNVHITTSGNFRTPTLLSTMLEVGSDRIMYSVDYPFEKHEDAARWFDTCEISENDRQKIGRDNARKLFGLK
B11: 33 (protein, listed as Rhizobium leguminosarum)
chain: MAQGKIALEEHFAIPETLQDSAGFVPGDYWKELSARLLDIQEKRLRLMDAHGIEKMILSLNAPAVQAIPDRAKALEISRRANDFLAEQCVKNPNRFLGFAALPLQDPDAATQELQRCVTTMGFVGALVNGFSQEGDGTTPLYYDLPQYRSFWAEVEKLNVPFYLHPRNPLPQDSRIYAGHSWLMGPTWAFAQETAVHALRLMGSGLFDEHPALRIIVGHMGEGLPYMMWRIDNRNAWVKVEKSYPAKRPIADYFNENFYITTSGNFRTQSLIDAMLEIGADRILFSADWPFENIDHAANWFDSATISEADRLKIGRTNAVSLFKLDR
B12: 34 (protein)
chain: MAQGKIGLEEHFAIPETLNDSAGFVPGDYWKELSRRLLDIQDDRLRQMDENGMEMMLLSLNAPAVQAVPDRKQACELAVRANDFLAEQVSRRPDRFQALAALPLQDPDFATVELTRCVNELGMRGALVNGFSQIDTPDNVVYYDAPQYASFWAAVEKLDVPFYLHPRNPIASWAQIYDGHPWLLGPTWAFGQETAVHALRLMASGLFDRHPALQIVLGHLGEGLPYSLWRIDNRNAWVKAPKTHPAKKTFRHYFQQNFHLTTSGNFHNQTLIDAILEIGADRILFSTDWPFENIDHAAKWFDSASISEADRTKIGRTNAMKLFKLVA
modifications: Cupriavidus necator
B13: 35 (protein)
chain: MAFKASRKIALEEHFAIDATVQDSAGFVPPSYWAELKRRLLDIHDRRIDEMDRNGVELMVLSLNAPTVQAVPNIKDAYDLSRRANDFLAEQIVKRPERFKGFAALPMQSPDLAARELERCVKELNFVGALVNGFSQVEESGTALYYDLPQYRQFWSVVQALDVPFYLHPRNPLPAHAPIYEGHPWLLGPTWAFGQETAVHALRLMGSGLFDEYPELKIILGHMGEGLPYSMWRIDNRNAWVETQPNYPAKKRIAEYFHKNFWLTTSGNFRTQTLIDAMLEIGSDRILFSTDWPFENVDHAAQWFDDAAISENDRIKIARTNAARLFKLEP
modifications: Burkholderia sp
B14: 36 (protein, listed as Agrobacterium sp.)
chain: B8 chain with K31T, R71K, K72T, V84A, R91K, D94N, T139I, A209E, N302H, T305S

Assay: 14C assay with IPTG-induced recombinant E. coli cells (14CO2 capture from [14C]-carboxyl-labeled dicamba)
Conditions: E. coli cell assay, 108 sequences tested
For B1, the “decarboxylation activity of dicamba” value was “showed decarboxylation activity of dicamba”. In the case of B2, the “decarboxylation activity of dicamba” value is reported as “showed decarboxylation activity of dicamba”. In the case of B3, the “decarboxylation activity of dicamba” value is reported as “showed decarboxylation activity of dicamba”. For B4, the “decarboxylation activity of dicamba” value was “showed decarboxylation activity of dicamba”. In the case of B5, the “decarboxylation activity of dicamba” value is reported as “showed decarboxylation activity of dicamba”. With B6 the “decarboxylation activity of dicamba” value was “showed decarboxylation activity of dicamba”. For B7, the “decarboxylation activity of dicamba” value was “showed decarboxylation activity of dicamba”. For B8, the “decarboxylation activity of dicamba” value was “showed decarboxylation activity of dicamba”. For B9, the “decarboxylation activity of dicamba” value was “showed decarboxylation activity of dicamba”. For B10, the “decarboxylation activity of dicamba” value was “showed decarboxylation activity of dicamba”.

Same assay, conditions: IPTG-induced recombinant E. coli cells; [14C]-carboxyl-labeled dicamba; 14CO2 capture
For B11, the “Dicamba Decarboxylase Activity” value was “High”. With B12 the “Dicamba Decarboxylase Activity” value was “High”. In the case of B13, the “Dicamba Decarboxylase Activity” value is reported as “High”. With B14 the “Dicamba Decarboxylase Activity” value was “High”.

Same assay, conditions: dicamba decarboxylation activity of the protein of the given SEQ ID NO
In the case of B11, the “Enzymatic Detection level” value is reported as “High”. In the case of B12, the “Enzymatic Detection level” value is reported as “High”. In the case of B13, the “Enzymatic Detection level” value is reported as “High”. In the case of B14, the “Enzymatic Detection level” value is reported as “High”.
